From article doi:10.1101/2024.12.20.629688, “The PH domain in the ArfGAP ASAP1 drives catalytic activation through an unprecedented allosteric mechanism” (bioRxiv, 2024)

B1: ΔN14 ASAP1 PH domain, [339–451]ASAP1 (domain or fragment, UniProt Q9QWY8 339-451, looked up)
chain: GSEKKGFLLKKSDGIRKVWQRRKCAVKNGILTISHATSNRQPAKLNLLTCQVKPNAEDKKSFDLISHNRTYHFQAEDEQDYIAWISVLTNSKEEALTMAFRGEQSTGENSLED
notes: ASAP1 PH domain without residues 325-338 (the first 14 residues of the wt PH construct), residues 339-451; also called ^ΔN14PH
B2: Cys159-MTSL tagged myrArf1 (natural protein)
chain: not shown
modifications: N-myristoylated; MTSL spin label on the native Cys159
notes: human Arf1, UniProt P84077; source: E. coli BL21 Star (DE3), co-expressed with yeast NMT, purified; spin-labelled on nanodiscs

Assays:
[1] = molecular target: T1, myristoylated human Arf1, GTP-bound form, anchored on membrane (nanodiscs or LUVs) (human, UniProt P84077 1-181, N-myristoylated); assay: cell-based or functional assay
[2] = molecular target: T1, myristoylated human Arf1, GTP-bound …; assay: other fluorescence titration + other: inhibition of the GAP activity of wt PZA; proxies for affinity: (1) rate of mant-GTP dissociation from myrArf1 (Trp to mant FRET) against PH concentration, LUVs with 5 mol% PI(4,5)P2, excess GTP; (2) IC50 of PH domain on GTP hydrolysis in 3 min with myrArf1·GTP below the Km and 1 nM wt PZA; conditions: both partners purified
[3] = molecular target: T2, ASAP1 ZA domain (Arf GAP and ankyrin repeat domains), [431–724]ASAP1 (UniProt Q9QWY8 431-724); assay: NMR paramagnetic relaxation enhancement; Cys159-MTSL myrArf1 (non-hydrolysable GTP analog) alone or in complex with wt PH on nanodiscs, 100 μM, with 100 μM isolated isotopically labelled ZA domain; conditions: both partners purified
T2 construct: Isotopically labelled for the PRE experiment; also called ^ΔPHZA; isolated ZA domain; source: recombinant; expression not described
T2 sequence (looked up): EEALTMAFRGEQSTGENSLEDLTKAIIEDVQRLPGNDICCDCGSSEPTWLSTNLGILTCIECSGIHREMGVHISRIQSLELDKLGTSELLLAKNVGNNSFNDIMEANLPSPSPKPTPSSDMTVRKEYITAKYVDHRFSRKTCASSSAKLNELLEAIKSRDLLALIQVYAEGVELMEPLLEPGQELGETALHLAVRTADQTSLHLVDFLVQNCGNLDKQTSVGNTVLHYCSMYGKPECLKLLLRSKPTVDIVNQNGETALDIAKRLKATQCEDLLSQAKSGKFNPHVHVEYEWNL

T1 sequence (P84077 whole entry, the tested form may be a part): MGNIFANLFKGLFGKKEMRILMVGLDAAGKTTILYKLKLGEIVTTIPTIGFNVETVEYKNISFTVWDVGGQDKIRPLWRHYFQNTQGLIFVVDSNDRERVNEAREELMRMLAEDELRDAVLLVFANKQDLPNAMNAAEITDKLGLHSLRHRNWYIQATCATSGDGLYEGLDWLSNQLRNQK

Row | Binder | “in trans” effect of the PH domain on GTP hydrolysis on myrArf1 by the isolated ZA domain (LUVs), relative to wt PH [1] | affinity relative to wt PH [2] | Kd [3] [µM]
1 | B1 | 0.01 fold of wt PH | ~0.5 fold of wt PH | 
2 | B2 |  |  | 100 to 1000
